Data on 27 molecules can be found in paper PMC10786891, “Massively parallel profiling of RNA-targeting CRISPR-Cas13d”.

T1: EsCas13d, nuclease-dead (Eubacterium siraeum, UniProt B0MS50, R295A;H300A;R849A;H854A)
T1 sequence: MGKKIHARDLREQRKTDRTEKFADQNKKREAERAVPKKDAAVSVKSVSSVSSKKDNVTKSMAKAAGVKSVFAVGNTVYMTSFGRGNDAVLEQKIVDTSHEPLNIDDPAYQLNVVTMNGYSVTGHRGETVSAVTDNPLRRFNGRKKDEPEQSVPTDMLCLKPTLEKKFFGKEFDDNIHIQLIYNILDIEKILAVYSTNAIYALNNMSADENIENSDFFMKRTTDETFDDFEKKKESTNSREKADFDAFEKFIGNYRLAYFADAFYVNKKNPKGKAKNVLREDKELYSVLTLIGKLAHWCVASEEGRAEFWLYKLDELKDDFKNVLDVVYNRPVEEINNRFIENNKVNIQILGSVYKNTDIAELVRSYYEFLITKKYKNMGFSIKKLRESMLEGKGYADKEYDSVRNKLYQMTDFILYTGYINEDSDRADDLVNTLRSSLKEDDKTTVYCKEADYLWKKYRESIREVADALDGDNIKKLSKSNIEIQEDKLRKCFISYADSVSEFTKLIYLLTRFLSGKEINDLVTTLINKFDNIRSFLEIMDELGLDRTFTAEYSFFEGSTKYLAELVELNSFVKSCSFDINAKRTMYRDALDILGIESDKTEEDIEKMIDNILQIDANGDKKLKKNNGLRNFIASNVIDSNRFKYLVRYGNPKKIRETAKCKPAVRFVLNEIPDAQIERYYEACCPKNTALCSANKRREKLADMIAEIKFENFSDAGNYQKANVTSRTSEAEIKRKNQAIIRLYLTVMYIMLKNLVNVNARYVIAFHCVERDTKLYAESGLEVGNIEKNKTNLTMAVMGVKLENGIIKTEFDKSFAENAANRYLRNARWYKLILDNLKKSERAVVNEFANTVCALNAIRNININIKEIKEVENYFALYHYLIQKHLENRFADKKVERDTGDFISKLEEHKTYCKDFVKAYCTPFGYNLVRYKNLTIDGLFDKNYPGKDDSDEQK

B1: target 1 insU 3' of 20,insG 3' of 7 (mixed)
RNA 1: CACCCGUGCAAAAAUGCAGGGGUCUAAAACUGAGCGGAUAACCUCUCUAUGG
RNA 2: GGGAAUGGAUCCACAUCUACGAAUUCGUACCAUUAGAGAGGUUAUCGCGCUCACCGAGAUCGGAAGAGCACACGU
B2: target 1 insG 3' of 7,insA 3' of 4 (mixed)
RNA 1: B1 RNA 1
RNA 2: GGGAAUGGAUCCACAUCUACGAAUUCGUACCAUAGAGAGGUUAUCGCGCAUCACCGAGAUCGGAAGAGCACACGU
B3: target 1 insA 3' of 12,insC 3' of 9 (mixed)
RNA 1: B1 RNA 1
RNA 2: B2 RNA 2 with U41A, A43U, U44A, G46U, G48C, C49G, A50C
B4: target 1 complement block 2-9 (mixed)
RNA 1: B1 RNA 1
RNA 2: GGGAAUGGAUCCACAUCUACGAAUUCGUACCAUAGAGAGGUUUAGGCGAGACCGAGAUCGGAAGAGCACACGU
B5: target 1 insG 3' of 18,insU 3' of 9 (mixed)
RNA 1: B1 RNA 1
RNA 2: B1 RNA 2 with U34A, A35G, C46U, G47C
B6: target 1 insA 3' of 10,insU 3' of 1 (mixed)
RNA 1: B1 RNA 1
RNA 2: B2 RNA 2 with U44A, C45U, G46C, A50U, U51C, C52A, A53U
B7: target 1 insC 3' of 16,insC 3' of 13 (mixed)
RNA 1: B1 RNA 1
RNA 2: GGGAAUGGAUCCACAUCUACGAAUUCGUACCAUAGACGAGCGUUAUCCGCUCACCGAGAUCGGAAGAGCACACGU
B8: target 1 G12A,C22U (mixed)
RNA 1: B1 RNA 1
RNA 2: GGGAAUGGAUCCACAUCUACGAAUUCGUAUCAUAGAGAGAUUAUCCGCUCACCGAGAUCGGAAGAGCACACGU
B9: target 1 C2U,C22A (mixed)
RNA 1: B1 RNA 1
RNA 2: B8 RNA 2 with U30A, A40G, C50U
B10: target 1 insA 3' of 15,insG 3' of 9 (mixed)
RNA 1: B1 RNA 1
RNA 2: B7 RNA 2 with C37G, G38A, C41G, G42U, U44A, A45G
B11: target 1 insG 3' of 16 (mixed)
RNA 1: B1 RNA 1
RNA 2: GGGAAUGGAUCCACAUCUACGAAUUCGUACCAUAGAGGAGGUUAUCCGCUCACCGAGAUCGGAAGAGCACACGU
B12: target 1 C6A,U19C (mixed)
RNA 1: B1 RNA 1
RNA 2: B8 RNA 2 with U30C, U33C, A40G, C46A
B13: target 1 insU 3' of 12,insG 3' of 8 (mixed)
RNA 1: B1 RNA 1
RNA 2: B2 RNA 2 with A43U, U44A, C45U, G48C, C49G, A50C
B14: target 1 insA 3' of 21,insA 3' of 15 (mixed)
RNA 1: B1 RNA 1
RNA 2: B7 RNA 2 with U33A, A34U, G35A, A36G, C37A, G40A, C41G
B15: target 1 insG 3' of 7,insA 3' of 6 (mixed)
RNA 1: B1 RNA 1
RNA 2: B2 RNA 2 with G48A, C49G, A50C
B16: target 1 C2U,A16C (mixed)
RNA 1: B1 RNA 1
RNA 2: B8 RNA 2 with U30C, A36C, A40G, C50U
B17: target 1 insG 3' of 21,insU 3' of 2 (mixed)
RNA 1: B1 RNA 1
RNA 2: B1 RNA 2 with A32G, U33A, G47C, C48G, G49C, C50U, U51C, C52U
B18: target 1 insA 3' of 15,insG 3' of 7 (mixed)
RNA 1: B1 RNA 1
RNA 2: B1 RNA 2 with U34A, A35G, G36A, A37G, G38A
B19: target 1 C4A,C6U (mixed)
RNA 1: B1 RNA 1
RNA 2: B8 RNA 2 with U30C, A40G, C46U, C48A
B20: target 1 insA 3' of 7,insG 3' of 7 (mixed)
RNA 1: B1 RNA 1
RNA 2: B2 RNA 2 with G46A, C47G, G48C, C49G, A50C
B21: target 1 insC 3' of 20,insC 3' of 14 (mixed)
RNA 1: B1 RNA 1
RNA 2: B7 RNA 2 with U33C, A34U, G35A, A36G, C37A, G40C, C41G
B22: target 1 insC 3' of 22,insG 3' of 10 (mixed)
RNA 1: B1 RNA 1
RNA 2: B1 RNA 2 with A32C, U33A, A44G, U45A, C46U, G47C
B23: target 1 insA 3' of 10,insG 3' of 1 (mixed)
RNA 1: B1 RNA 1
RNA 2: B2 RNA 2 with U44A, C45U, G46C, A50U, U51C, C52A, A53G
B24: target 1 insU 3' of 21,insG 3' of 21 (mixed)
RNA 1: B1 RNA 1
RNA 2: B7 RNA 2 with A32U, U33G, G35U, C37G, G38A, A39G, G40A, C41G
B25: target 1 C7G,U19A (mixed)
RNA 1: B1 RNA 1
RNA 2: B8 RNA 2 with U30C, U33A, A40G, C45G
B26: target 1 insC 3' of 15,insA 3' of 4 (mixed)
RNA 1: B1 RNA 1
RNA 2: B2 RNA 2 with A38C, G39A, U41G, A43U, U44A, C45U, G46C
B27: target 1 G12A,G15C (mixed)
RNA 1: B1 RNA 1
RNA 2: B8 RNA 2 with U30C, G37C

Residue numbers refer to the chain shown, from its start. In names and notes the source's numbering stands.

This data set deals with T1, EsCas13d, nuclease-dead. In words: crRNA (strand 1, pre-loaded); Mg2+; 40 mM Tris-HCl pH 7.5, 150 mM NaCl, 6 mM MgCl2, 1 mM DTT, 0.1% Tween-20, 0.2 mg/ml BSA; 25 C; 10 min per concentration, then washed. The following applies: tags: His6-TwinStrep-SUMO cleaved; N-terminal SNAP kept (SNAP-Surface 488); label: 3' end held by stalled T7 RNA polymerase.
B1: the dissociation constant Kd – broadly, the equilibrium constant for the complex coming apart – is 11.8 ± 0.6 nM. In the case of B2 it was 5.49 ± 0.24 nM. B3 showed a Kd of 40 ± 5 nM. B4: the dissociation constant Kd came to 7.29 ± 0.23 nM. As for B5, the figure is 71 ± 10 nM; as for B6, 13.9 ± 0.8 nM; as for B7, 83 ± 27 nM.

On to B8, for which binding was put at a Kd of 13 ± 1.1 nM. In the case of B9 it was 16.2 ± 1.2 nM. In turn, B10 displayed a Kd of 8.7 ± 0.7 nM. Take B11: the Kd worked out at 12.1 ± 1.1 nM. As for B12, the figure is 21.3 ± 1.9 nM; as for B13, 9.41 ± 0.34 nM; as for B14, 9.4 ± 0.6 nM. In turn, B15 came in with a Kd of 9 ± 0.6 nM. In the case of B16 it was 56 ± 4 nM; in that of B17, 70 ± 9 nM. In the case of B18 it was 6.15 ± 0.19 nM; in that of B19, 4.16 ± 0.27 nM. As for B20, the figure is 13 ± 0.9 nM; as for B21, 3.1 ± 0.5 nM. Consider B22, for which the Kd was found to be 34.4 ± 2.2 nM.

In turn, B23 yielded a Kd of 14.4 ± 1.2 nM.

With B24, the affinity, expressed as Kd, was 54 ± 6 nM. In the case of B25 it was 56 ± 9 nM; in that of B26, 6.5 ± 0.5 nM; in that of B27, 57 ± 15 nM.
